Measured values from article PMC7755911.

Target: Biotinylated SARS-CoV-2 S protein RBD with a C-terminal AviTag (SARS-CoV-2) (UniProt P0DTC2)
Test: BLI

Chain of NIH-CoVnb-112 (VHH) (VHH): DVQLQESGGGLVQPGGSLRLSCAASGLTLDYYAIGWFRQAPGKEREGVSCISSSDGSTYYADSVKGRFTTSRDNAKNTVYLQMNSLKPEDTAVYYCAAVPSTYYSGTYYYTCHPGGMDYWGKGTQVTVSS

NIH-CoVnb-112 (VHH)
Kd: 4.9 nM | koff: 0.000654 s⁻¹ | kon: 130000 M⁻¹ s⁻¹
